These results are taken from the supplement of paper PMC7877785.

The data set can be described thus: self-splicing fitness, log relative to wild type (ln ratio); higher = more splicing; Tetrahymena group I intron in knt gene, E. coli kanamycin selection, DiMSum; sequences stand for … in CUCUCU…GGAGGGAAAAGUUAUCAGGCAUGCACCUGGUAGCUAGUCUUUAAACCAAUAGAUUGCAUCGGUUUAAAAGGCAAGACCGUCAAAUUGCGGGAAAGGGGUCAACAGCCGUUCAGUACCAAGUCUCAGGGGAAACUUUGAGAUGGCCUUGCAAAGGGUAUGGUAAUAAGCUGACGGACAUGGUCCUAACCACGCAGCCAAGUCCUAAGUCAACAGAUCUUCUGUUGAUAUGGAUGCAGUUCACAGACUAAAUGUCGGUCGGGGAAGAUGUAUUCUUCUCAUAAGAUAUAGUCGGACCUCUCCUUAAUGGGAGCUAGCGGAUGAAGUGAUGCAACACUGGAGCCGCUGGGAACUAAUUUGUAUGCGAAAGUAUAUUGAUUAGUUUUGGAGUACUCGUGGUCG
In outline: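 Colonies from six replicate transformations of E. coli BL21(DE3) were pooled and amplicon-sequenced on an Illumina HiSeq 2500. The library placed an intron with all eight P1ex-region nucleotides randomised inside the knt kanamycin-resistance gene on pET-22b(+), and cells grew overnight at 37°C or 30°C on LB agar with or without 25 μg/mL kanamycin (plus 100 μg/mL carbenicillin, 50 μM IPTG, 0.2% rhamnose). Fitness is the DiMSum error-weighted combination of wild-type-normalised replicate fold changes, kanamycin versus none.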

± gives the uncertainty stated by the source.

Regarding AAGGAGCAAUAUUACGAGCC, under “30 °C”, the “self-splicing fitness (ln)” value is -0.997 ± 0.17.
In the case of CCCGAGCAAUAUUACGGCCU, the “self-splicing fitness (ln)” value (30 °C) is -2.93 ± 0.33.
With UUUGAGCAAUAUUACGACGG, the “self-splicing fitness (ln)” value was -0.966 ± 0.16 (30 °C) and -0.751 ± 0.23 (37 °C).
For CAAAAGCAAUAUUACGAGCU, in that order: -3.99 ± 0.21 and -1.96 ± 0.13.
For UAAUAGCAAUAUUACGUCAA, in that order: -2.33 ± 0.17 and -1.77 ± 0.15.
On to AACCAGCAAUAUUACGUGGG, for which the “self-splicing fitness (ln)” value was -3.94 ± 0.12 (30 °C) and -2.57 ± 0.094 (37 °C).
Consider CGUCAGCAAUAUUACGCGCU, for which the “self-splicing fitness (ln)” value (30 °C) was -0.602 ± 0.18 and the “self-splicing fitness (ln)” value (37 °C) was -2.64 ± 0.32.
For CCAUAGCAAUAUUACGUAGA, in that order: -3.86 ± 0.17 and -2.53 ± 0.16.
As to UAAUAGCAAUAUUACGCCGA, the “self-splicing fitness (ln)” value was -1.01 ± 0.29 (30 °C) and -1.51 ± 0.44 (37 °C).
For AGUAAGCAAUAUUACGUGUU, in that order: -3.49 ± 0.13 and -1.99 ± 0.18.
For UAGUAGCAAUAUUACGAGCA, in that order: -1.07 ± 0.12 and -0.0288 ± 0.12.
In the case of GAGCAGCAAUAUUACGAGGG, the “self-splicing fitness (ln)” value (37 °C) is -2.81 ± 0.38.
As to CACAAGCAAUAUUACGUUUG, the “self-splicing fitness (ln)” value by setting is: (30 °C) -2.89 ± 0.078; (37 °C) -2.14 ± 0.089.
For GUUGAGCAAUAUUACGCUUU, in that order: -3.95 ± 0.48 and -2.45 ± 0.26.
For AGGGAGCAAUAUUACGUAGA, in that order: -3.05 ± 0.19 and -2.22 ± 0.48.
In the case of CGUCAGCAAUAUUACGGUCC, the “self-splicing fitness (ln)” value is -1.34 ± 0.079 (30 °C) and -0.173 ± 0.1 (37 °C).
For CGAGAGCAAUAUUACGUGGC, in that order: -4.31 ± 0.46 and -2.55 ± 0.26.
Regarding ACUCAGCAAUAUUACGACAA, the “self-splicing fitness (ln)” value (30 °C) was -0.977 ± 0.27 and the “self-splicing fitness (ln)” value (37 °C) is -1.18 ± 0.24.
For CGCUAGCAAUAUUACGGAUA, in that order: -2.99 ± 0.17 and -2.14 ± 0.22.
Regarding CCAGAGCAAUAUUACGCAUU, the “self-splicing fitness (ln)” value reads like this: (30 °C) -3.53 ± 0.33; (37 °C) -2.22 ± 0.2.
For GUACAGCAAUAUUACGCCCU, in that order: -1.64 ± 0.34 and -0.525 ± 0.32.
For GGCUAGCAAUAUUACGCAUU, in that order: -0.352 ± 0.074 and 0.553 ± 0.086.
With AUGCAGCAAUAUUACGUUCC, the “self-splicing fitness (ln)” value (30 °C) was -1.55 ± 0.18 and the “self-splicing fitness (ln)” value (37 °C) was -1.17 ± 0.22.
For CACCAGCAAUAUUACGUAUA, in that order: -4.42 ± 0.24 and -2.33 ± 0.18.
On to CCACAGCAAUAUUACGGCGA, for which the “self-splicing fitness (ln)” value reads like this: (30 °C) -3.36 ± 0.18; (37 °C) -1.63 ± 0.13.
For GGAGAGCAAUAUUACGCGAU, in that order: -2.76 ± 0.28 and -1.64 ± 0.37.
As for GUGGAGCAAUAUUACGGUGC, the “self-splicing fitness (ln)” value reads like this: (30 °C) -2.76 ± 0.24; (37 °C) -1.93 ± 0.25.
For GUUAAGCAAUAUUACGGUCC, in that order: -0.666 ± 0.12 and 0.191 ± 0.15.
For UUUUAGCAAUAUUACGAUAA, in that order: -0.659 ± 0.14 and 0.144 ± 0.15.
For AGCUAGCAAUAUUACGUAUG, in that order: -2.52 ± 0.15 and -0.829 ± 0.12.
Turning to GGUAAGCAAUAUUACGUUAG, the “self-splicing fitness (ln)” value was -3.15 ± 0.18 (30 °C) and -1.72 ± 0.19 (37 °C).
With UUGAAGCAAUAUUACGCCCU, the “self-splicing fitness (ln)” value was -0.0294 ± 0.13 (30 °C) and 0.698 ± 0.16 (37 °C).
Consider CACCAGCAAUAUUACGUACU, for which the “self-splicing fitness (ln)” value by setting is: (30 °C) -3.08 ± 0.2; (37 °C) -2.21 ± 0.2.
In the case of AUAUAGCAAUAUUACGGGAG, the “self-splicing fitness (ln)” value runs as follows: (30 °C) -4.22 ± 0.39; (37 °C) -1.59 ± 0.24.
For GAACAGCAAUAUUACGUCAG, in that order: -2.51 ± 0.21 and -3.2 ± 0.36.
In the case of UACCAGCAAUAUUACGGUCU, the “self-splicing fitness (ln)” value runs as follows: (30 °C) -0.501 ± 0.056; (37 °C) 0.24 ± 0.067.
For ACCCAGCAAUAUUACGGUCG, in that order: -3.85 ± 0.14 and -1.75 ± 0.095.
For AUUAAGCAAUAUUACGGGUU, in that order: -2.34 ± 0.23 and -2.92 ± 0.38.
